Patent US20130171236A1, “Prevention and Treatment of Ischemia-Reperfusion Injury and Related Conditions” (MEDICAL UNIVERSITY OF SOUTH CAROLINA, priority 2006, published 2013)

Legend:
C57B1/6 mice [1] = experiment: Intestinal ischemia-reperfusion injury model in immune competent mice; type: in vivo; conditions: injected right before the reperfusion phase, FIG. 9
Procedure: To address this issue, the inventors created compounds that could block the effects of the monoclonal antibodies. This concept was first tested with the antibodies recognizing phospholipids, and liposomes were created composed of cholesterol and the phospholipids phosphatidylcholine and phosphoglycerol.
Wild type C57BL/6 are utilized for these studies. The ischemia-reperfusion model is performed as outlined briefly. Anesthesia is induced with ketamine (16 mg/kg) and xylazine (8 mg/kg) administered by intramuscular injection. All procedures are performed with the animals breathing spontaneously and body temperature maintained at 37° C. using a water-circulating heating pad. To induce ischemia-reperfusion injury, a midline laparotomy is performed prior to a 30 minute equilibration period. […] After this ischemic phase, the clamp is removed under direct visualization and the intestine allowed to perfuse for 2 hours. […] The laparotomy incisions are then sutured and the animals monitored during the reperfusion period. […]
For histology and immunohistochemistry, immediately after euthansia segments of small intestine specimens are fixed in 10% buffered formalin. […] In addition, the villus height of at least 10 villi from the same section is measured using an ocular micrometer. […]

C57B1/6 mice [2] = experiment: MCAO ischemic stroke and reperfusion in C57B1/6 mice, treatment; type: in vivo; conditions: 100 μg i.v. at 30 min post reperfusion
Procedure: Eight week old male C57B1/6 and C57B1/6 C3 deficient mice (Jackson labs, Bar Harbor, Me.) were used in experiments. Mice were anesthetized with chloral hydrate (350 mg/kg) and xylazine (4 mg/kg) i.p., and the left common carotid artery of each mouse was exposed through a mid-line incision in the neck. […] The distal end of the ECA was ligated with 6-0 silk and transected, and 6-0 silk was tied loosely around the ECA stump. The clip was then removed, and the blunted tip of a 4-0 nylon suture was inserted into the ECA stump. The loop of the 6-0 silk was tightened around the stump, and the nylon suture advanced into and through the internal carotid artery until it rested in the anterior cerebral artery. After the nylon suture had been placed for 60 minutes, it was pulled back into the ECA, and the incision closed. […]
Infarct volume was measured by TTC staining and volume calculated using image analysis.
Animals were monitored for 24 hours post reperfusion and clinical assessed for neurological deficit. Behavioral/neurological deficit was scored as follows: 0, normal motor function; 1, flexion of torso and contralateral forelimb when animal is lifted by the tail; 2, circling to the contralateral side when held by tail on flat surface, but normal posture at rest; 3, leaning to the contralateral side at rest; 4, no spontaneous motor activity. […]

B1: annexin IV: recombinant annexin IV, a phospholipid binding protein, prepared as in Example 2 (protein, listed as Homo sapiens)
chain: MATKGGTVKAASGFNAMEDAQTLRKAMKGLGTDEDAIISVLAYRNTAQRQEIRTAYKSTIGRDLIDDLKSELSGNFEQVIVGMMTPTVLYDVQELRRAMKGAGTDEGCLIEILASRTPEEIRRISQTYQQQYGRSLEDDIRSDTSFMFQRVLVSLSAGGRDEGNYLDDALVRQDAQDLYEAGEKKWGTDEVKFLTVLCSRNRNHLLHVFDEYKRISQKDIEQSIKSETSGSFEDALLAIVKCMRNKSAYFAEKLYKSMKGLGTDDNTLIRVMVSRAEIDMLDIRAHFKRLYGKSLYSFIKGDTSGDYRKVLLVLCGGDD
For B1, the intestinal ischemia-reperfusion injury (C57B1/6 mice [1]) was “nearly completely protected mice from ischemia-reperfusion injury”, the intestinal ischemia-reperfusion injury (C57B1/6 mice [1]; listed as recombinant annexin IV) was “reduces the level of intestinal ischemia reperfusion injury” and the neurological deficit (C57B1/6 mice [2]; 24 hours, FIG. 8) was “significant reduction in neurological deficit”. For the same molecule, the “cerebral infarct volume (TTC)” value (C57B1/6 mice [2]; FIG. 7) was “significantly protects against cerebral infarct”.
